US20060241039A1

Molecular target: FVa light chain (FVaL) derived from ΔFV or its mutants by thrombin (human) (UniProt P12259)
Assay: cell-based or functional assay

Sequence of UniProt P12259 (P12259 other isoform, or with tags, fused parts or gaps mutant limits assumed): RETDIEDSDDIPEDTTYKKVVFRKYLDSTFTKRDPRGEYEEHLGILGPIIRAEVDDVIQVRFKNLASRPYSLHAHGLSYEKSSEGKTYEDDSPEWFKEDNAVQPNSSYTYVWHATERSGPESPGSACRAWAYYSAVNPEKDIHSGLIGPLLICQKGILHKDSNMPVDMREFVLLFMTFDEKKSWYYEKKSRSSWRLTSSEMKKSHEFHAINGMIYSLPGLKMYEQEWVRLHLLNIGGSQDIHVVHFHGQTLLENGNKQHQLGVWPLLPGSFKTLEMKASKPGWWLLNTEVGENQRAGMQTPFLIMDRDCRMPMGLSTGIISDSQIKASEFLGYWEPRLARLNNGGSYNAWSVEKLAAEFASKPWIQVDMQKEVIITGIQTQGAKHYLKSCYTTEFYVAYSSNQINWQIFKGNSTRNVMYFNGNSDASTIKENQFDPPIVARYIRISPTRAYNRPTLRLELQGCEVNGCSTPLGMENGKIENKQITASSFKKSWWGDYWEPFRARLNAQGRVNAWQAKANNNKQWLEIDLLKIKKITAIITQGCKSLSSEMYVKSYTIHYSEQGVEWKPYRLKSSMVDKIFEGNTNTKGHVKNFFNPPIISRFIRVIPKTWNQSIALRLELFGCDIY

## FVaH derived from ΔFV multipoint mutant ED/EDD (E96, D102, E108, D111 and D112 to Ala) (from UniProt P12259 29-737)
  inhibition of ΔFV activity (prothrombinase function, thrombin generation): 98%
